Results: the nanobody polyreactivity screen of Harvey et al. (2022)

Test: yeast display, Sf9 membrane polyspecificity reagent, FACS + sequencing; frameworks hold sequencing errors
Method in brief: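 Using colony PCR, genes from sorted yeast display clones were amplified, then sequenced on MiSeq at 2 × 250 and filtered by CDR length. The clones had been stained with 10% biotinylated, detergent-solubilized Sf9 membrane reagent for 1 hour at 4 °C and sorted by FACS into low and high (top ~1%) gates on anti-HA and streptavidin fluorescence. Polyreactivity labels come from the gate of origin.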

Row | Sequence | polyreactivity (PSR sort gate)
1 | QVQLVESGGGLVQAGGSLRLSCAASGIIFYGNTLGWYRQAPGKERELVAGIDFSDDSTNYADSVKGRFTISRDNAKNSVYLLRNSLKPEDTAVYYCAADTRSPSAQEVDYWGQGTQVTVSS | low polyreactivity
2 | QVQLVESGGGLVQAGGSLRLSCAASGIIFYGYVMGWYRQAPGKERELVATITSSGGSTYYADSVKGRFTISRDNAKNSVYLQMNSLKPEDTAVYYCAADYYYGAWVRHDYWGQGTQVTVSS | low polyreactivity
3 | QVQLVESGGGLVQAGGSLRLSCAASGIIFYHYPMGWYRQAPGKERELVAAITGSGIRTYYADSVKGRFTISRDNAMNTVYLQMNSLKPEDTAVYYCGAQQRYWSTYGYWGQGTQVTVSS | high polyreactivity
4 | QVQLVESGGGLVQAGGSLRLSCAASGIIFYIYTMGWYRQAPGKERELVAAINRSGSRTYYADSVKGRFTISRDYAKNNVYLQMNSLKPEDTAVYYCAAGTGSRDDYWGQGTQVTVST | high polyreactivity
5 | QVQLVESGGGLVQAGGSLRLSCAASGIIFYKNAMGWYRQAPGKERELVAAISGSGGRTYYADSVKGRFTISRDNAKKTVYLQMNSLKPEDTAVYYCAARKPYRHGYESWGQGTQVTVSS | high polyreactivity
6 | QVQLVESGGGLVQAGGSLRLSCAASGIIFYKYAMGWKRQGPGKERELVAAITSGGRRTYYADSVKGRFTISRDNAKNTVYLLMNSLKPEDTEAFYCAARFSYPWLYLFVYWGQVTQVTVSS | high polyreactivity
7 | QVQLVESGGGLVQAGGSLRLSCAASGIIFYKYAMGWYRQAPGKERELVAAITSGGGRTYYADSVKGRFTISRDNAKNTVYLQMNSLKPEDTAVYYCAATRPATYAAYDYWGQGTQVTVSS | high polyreactivity
8 | QVQLVESGGGLVQAGGSLRLSCAASGIIFYLNAMGWYRQAPGKERELVAAISNGTSTNYADSVKGRFTISRDNAKNTVYLQMNSLKPEDTAVFYCAADDLRYNSRSSNYRGDYWGQGTQVTVSS | low polyreactivity
9 | QVQLVESGGGLVQAGGSLRLSCAASGIIFYLNAMGWYRQAPGKERELVAGITYSGGSTYYADSVKGRFTISRDNAKNTVYLQMNSLKPEDTAVYYCAARTKWYIFLYDYWGQGTQVTVSS | low polyreactivity
10 | QVQLVESGGGLVQAGGSLRLSCAASGIIFYPNAMGWYRQAPGKERELVAAITSDGSTYYADSVKGRFTISRDNAKNTVYLQMNSLKPEDTAVYYCAAWDDYGYDYWGQGTQVTVSS | low polyreactivity
11 | QVQLVESGGGLVQAGGSLRLSCAASGIIFYRNAMGWYRQAPGKERELVAAISKGGGSTYYADSVKGRFTISRDNAKNTVYLQMNSLKPEDTAVYYCAAKAYTYYARIGFDYWGQGTQVTVSS | high polyreactivity
12 | QVQLVESGGGLVQAGGSLRLSCAASGIIFYRNAMGWYRQAPGNERELVAAITSSGGRTYYADSVKGRFTISRDNAKNTVYLQMNSLKPEDTPVYYCAATRLYWKIFYGDGDYWGQGTQVTVSS | high polyreactivity
13 | QVQLVESGGGLVQAGGSLRLSCAASGIIFYRNTMGWYRQAPGKERELVAAIRRGGNTYYADSVKGRFTISRDNAKNTVYLQMNSLKPEDTAVYYCAASAGPRASYYYWGQGTQVTVSS | high polyreactivity
14 | QVQLVESGGGLVQAGGSLRLSCAASGIIFYRYTMGWYRQAPGKERELVAAISSRGGSTYYADSVKGRFTISRDNAKNTVYLQMNSLKPEDTAVYYWNARSKRTARYNYWGQGTQVTVSS | high polyreactivity
15 | QVQLVESGGGLVQAGGSLRLSCAASGIIFYRYTMGWYRQAPGKERELVAAITSGGDTNYADSVKGRFTISRDNAKNTVYLQMNSLKPEDTAVYYCNADWWWYLYLYDYWGQGTQVTVSS | high polyreactivity
16 | QVQLVESGGGLVQAGGSLRLSCAASGIIFYVYAMGWYRQAPVKERELVAAISDTAGDTYYADSVKGRFTISRDNAKNTVYLQMNSLKPEDTAVYYCATDWFSYRGGIFDSWGQGTQVTVSS | low polyreactivity
17 | QVQLVESGGGLVQAGGSLRLSCAASGIIFYYNAMGWNRKAPGKERELVAAISQRGSSTYYADSVKGRFTISRDNAQNTVYLQMNSLKPEDTAVYYCAKRFIYGRYNYWGQGTQVTVSS | high polyreactivity
18 | QVQLVESGGGLVQAGGSLRLSCAASGIIFYYNAMGWYRQAPGKERELVAAISSSGGSTSYADSVKGRFTISRDNAKNTVYLQMNSLKPEDTAVYYCAADSSPAYLGFVGFDYWGQGTQVTVSS | low polyreactivity
19 | QVQLVESGGGLVQAGGSLRLSCAASGIIFYYNAMGWYRQAPGKERELVATIRWRGGSTYYADSVKGRFTISRDNAKNTVYLQMNSLKPEDTAVYYCNKSYDNSSDSDYWGQGTQVTVSS | low polyreactivity
20 | QVQLVESGGGLVQAGGSLRLSCAASGIIFYYNAMGWYRQAPGKEREYVASISSRGGSTYYADSVKGRFTISRDNAKNTVYLQMKSLKPEDPAVYYCAAAFDWRRQRYNYWGHGTQVTVSS | high polyreactivity
21 | QVQLVESGGGLVQAGGSLRLSCAASGIIIDSNAMGWYRQAPGKERELVAAITSGGSTKYADSVKGRFTISRDNAKNTVYLQMNSLKPEDTAVYYCAAGGSYYRDDYWGQGTQVTVSS | low polyreactivity
22 | QVQLVESGGGLVQAGGSLRLSCAASGIIIDSNAMGWYRQAPGKERELVAAITSGGSTKYADSVKGRFTISRDNAKNTVYLQMNSLKPEDTAVYYCNADFRQADQCSYFYEMDSWGQGTQVTVSS | low polyreactivity

Row | Sequence | polyreactivity (PSR sort gate)
23 | QVQLVESGGGLVQAGGSLRLSCAASGIIIGSNAMGWYRQAPGKERELVAAISDSGGSTYYADSVKGRFTISRDNAKNTVYLQMNSLKPEDTAVYYCAAAGRGSWTTYRFDYWGQGTQVTVSS | high polyreactivity
24 | QVQLVESGGGLVQAGGSLRLSCAASGIIISVYALGWYRQAPGKERELVATISLSSGRTYYADSVKGRFTISRDNAKNTVYFQMNCLKPEDTAVYYCNAGGRTASRRYYWGQGTQVTVSS | low polyreactivity
25 | QVQLVESGGGLVQAGGSLRLSCAASGIILDEYAMGWYRQAPGKERELVAAITWIGGSTYADSVKGRFTISRDNAKNTVYLQMNSLKPEDTAVYYCAADYPSLYVWYGYGWYKYDYWGQGTQVTVSS | low polyreactivity
26 | QVQLVESGGGLVQAGGSLRLSCAASGIILDHYAMGWYRQAPGKERELVAAISSGTRTNYADSVKGRFSISRDNAKHTVSLQMNSLKPEDTAVYNCAATIYRRYRSKYSITSYWGQGTQVTVSS | high polyreactivity
27 | QVQLVESGGGLVQAGGSLRLSCAASGIILDHYAMGWYRQAPGKERELVAAISSGTRTNYADSVKGRFTISRDNAKNTVYLQMNSLKPEDTAVYYCAATIYRRYRSKSSITSYWGQGTQVTVSS | high polyreactivity
28 | QVQLVESGGGLVQAGGSLRLSCAASGIILDRNAMGWYRQAPGKERELVAAINSIGGSTYYADSVKGRFTISRDNAKKTVYLQMNSLKPEDTAVYYCAAPSTSSYYWGQGTQVTVSS | low polyreactivity
29 | QVQLVESGGGLVQAGGSLRLSCAASGIILFRYAMGWYRQAPGKERELVAAISWSGGSTYYADSVKGRFTISRDNAMNTVYLQMNCLKPEDTAVYYCAADHKYYGFGEVDYWGQGNQVTVSS | high polyreactivity
30 | QVQLVESGGGLVQAGGSLRLSCAASGIILHYYAMGWYRQAPGKERELVAAISARGGRTYYADSVKGRFTISRDNAKNTVYLQMNSLKPEDTAVYYCARYLRRSSPSPGYGYWGQGTQVTVSS | high polyreactivity
31 | QVQLVESGGGLVQAGGSLRLSCAASGIILLRYTMGWYRQAPGKERELVAAISRSAGRTYYADSVKGRFTISRDNAKNTVYLQMNSLKPEDTAVYYCNKASWYNGEIDYWGQVTQVTVSS | high polyreactivity
32 | QVQLVESGGGLVQAGGSLRLSCAASGIILPYYVMGWYRQAPGKERELVAAISSGGRTYYADSVKGRFTISRDNAKNTVYLQMNSLKPEDTAVYYCNAYFTGKWYDYWGQGTQVTVSS | high polyreactivity
33 | QVQLVESGGGLVQAGGSLRLSCAASGIILRRYAMGWYRQAPGKERELVARISYRGGRTNYADSVKGRFTISRDNAKNTVYLQMNSLKPEDTAVYYCAAVAWYYHEGTAYNYWGQGTQVTVSS | high polyreactivity
34 | QVQLVESGGGLVQAGGSLRLSCAASGIILRYYAMGWYRQAPGKERELVAAITRGGSTNYADSVKGRFTISRDNAKNTVYLQMNSLKPEDTAVYYCAADVVFWFSNVAWGDFGYWGQGTQVTVSS | low polyreactivity
35 | QVQLVESGGGLVQAGGSLRLSCAASGIILSDYAMGWYRPAPGKERELVAAITSGGGSTYYADSVKGRFTISRDNAKNTVYLQMNSLNPEDTAVYFCAADLTSYYGGDYWGQGTQVTVSS | low polyreactivity
36 | QVQLVESGGGLVQAGGSLRLSCAASGIILSYYVMGWYRQAPGKERELVAAISLRGGSRTYYADSVNGRFTISRDNAKNTVYLQMNSLKPEDTAVYYCAKLRWVYGRQTLMDYWGQGTQVTVSS | high polyreactivity
37 | QVQLVESGGGLVQAGGSLRLSCAASGIILTVYAMGWYRQAPGKERELVATISRRGGNTYYADSVKGRFTISRDNAKNTVYLQMNSLKPEDTAVYYCNKAYQYGGYYYWGQGTQVTVSS | high polyreactivity
38 | QVQLVESGGGLVQAGGSLRLSCAASGIILVYNAMGWYRQAPGKERELVAAISSSGGTTYYADSVKGRFTISRDNAKNTVYLQMNSLKPEDTAVYYCNAALPVTRSERYGSDYWGQGTQVTVSS | low polyreactivity
39 | QVQLVESGGGLVQAGGSLRLSCAASGIILYGYDMGWYRQAPGKERELVAAISSSGGSTYYADSVKGRFTISRDNAKNTVYLQMNSLKPEDTAVYYCAASKRYYGQLLTGGYYGYYYCGQGTQVTVSS | high polyreactivity
40 | QVQLVESGGGLVQAGGSLRLSCAASGIILYVNAMGWYRQAPGKEREFVAAISWGGGSTYYADSVKGRFTISRDNAKNTVYLQMNSLKPEDTAVYYCAAEFWSGYPTYTYDYWGQGTQVTVSS | low polyreactivity
41 | QVQLVESGGGLVQAGGSLRLSCAASGIILYVNAMGWYRQAPGKERELVAAISWGGGSTYYADSVKGRFTISRDNAKNTVYLQMNSLKPEDTAVYYCAAEFWSGYPTYTYDYWGQGTQVTVSS | low polyreactivity
42 | QVQLVESGGGLVQAGGSLRLSCAASGIIPSYAMGWYRQAPGKERELVAGISRSGGSTYYADSVKGRFTISRDNAKNTVYLQMNSLKPEDTAVYYCAARVKVRDFKGYYWGQGTQVTVSS | high polyreactivity
43 | QVQLVESGGGLVQAGGSLRLSCAASGIISGDYALGWYRQAPGKERELVARITSGDSTNYADSVKGRFTISRDNAKNTVYLQMNSLKPEDTAVYYCAADRVWAYWTYGYWGQGTQVTVSS | low polyreactivity
